From the array DNA melting data of Ke et al. come the findings set out here.

This series in a line: melting temperature; melt of duplexes. Particulars: sodium 0.0675 M; strand 1 µM.
“CGACGTGCTATATGTGCTG+CAGCACATTTAGCACGTCG ((((((((((.((((((((+)))))))).))))))))))”: the Tm was determined as 55.3 °C.

For the substance “CGACGTGCGGAATGTGCTG+CAGCACATCCGGCACGTCG ((((((((.(.((((((((+)))))))).).))))))))”, the Tm came out at 55.7 °C.

On to “CGACGTGCACCATGTGCTG+CAGCACATGGCGCACGTCG ((((((((.((((((((((+)))))))))).))))))))”, for which the Tm was determined as 59.2 °C.

Turning to “CGACGTGCGAAATGTGCTG+CAGCACATTCGGCACGTCG ((((((((..(((((((((+)))))))))..))))))))”, the Tm was 53.7 °C.

As to “CGACGTGCATAATGTGCTG+CAGCACATAGTGCACGTCG (((((((((..((((((((+))))))))..)))))))))”, the Tm amounted to 48.7 °C.

In the case of “CGACGTGCAGGATGTGCTG+CAGCACATTACGCACGTCG ((((((((...((((((((+))))))))...))))))))”, the Tm turned out to be 50.7 °C.

“CGACGTGCCATATGTGCTG+CAGCACATGCTGCACGTCG ((((((((...((((((((+))))))))...))))))))”: the Tm is 46.7 °C.

For “CGACGTGCGGGATGTGCTG+CAGCACATCGCGCACGTCG (((((((((.(((((((((+))))))))).)))))))))”, the melting temperature (Tm) worked out at 63.7 °C.

On to “CGACGTGCCTAATGTGCTG+CAGCACATCAGGCACGTCG ((((((((((.((((((((+)))))))).))))))))))”, for which the Tm came to 56.3 °C.

For the substance “CGACGTGCATTATGTGCTG+CAGCACATGAGGCACGTCG ((((((((.(.((((((((+)))))))).).))))))))”, the Tm came out at 54 °C.

On to “CGACGTGCGAAATGTGCTG+CAGCACATCATGCACGTCG ((((((((...((((((((+))))))))...))))))))”, for which the Tm turned out to be 49.9 °C.

As to “CGACGTGCTTGATGTGCTG+CAGCACATGACGCACGTCG ((((((((.(.((((((((+)))))))).).))))))))”, the Tm amounted to 46.5 °C.

On to “CGACGTGCGTGATGTGCTG+CAGCACATCCAGCACGTCG ((((((((..(((((((((+)))))))))..))))))))”, for which the Tm came out at 55.5 °C.

As for “CGACGTGCTAGATGTGCTG+CAGCACATTACGCACGTCG ((((((((...((((((((+))))))))...))))))))”, the Tm is 50.1 °C.

For the substance “CGACGTGCCCCATGTGCTG+CAGCACATAAAGCACGTCG ((((((((...((((((((+))))))))...))))))))”, the Tm turned out to be 47.7 °C.

In the case of “CGACGTGCTCTATGTGCTG+CAGCACATAGAGCACGTCG (((((((((((((((((((+)))))))))))))))))))”, the Tm came out at 63 °C.

“CGACGTGCTAGATGTGCTG+CAGCACATATTGCACGTCG ((((((((.(.((((((((+)))))))).).))))))))”: the Tm is 52.5 °C.

Consider “CGACGTGCCGAATGTGCTG+CAGCACATCAGGCACGTCG (((((((((..((((((((+))))))))..)))))))))”, for which the Tm worked out at 55.4 °C.

For the substance “CGACGTGCCTGATGTGCTG+CAGCACATTAAGCACGTCG ((((((((.(.((((((((+)))))))).).))))))))”, the Tm was 50.8 °C.

Consider “CGACGTGCGCTATGTGCTG+CAGCACATCCTGCACGTCG ((((((((...((((((((+))))))))...))))))))”, for which the midpoint of thermal melting (Tm) is 48.1 °C.

In the case of “CGACGTGCCGTATGTGCTG+CAGCACATGGTGCACGTCG ((((((((...((((((((+))))))))...))))))))”, the Tm amounted to 46.6 °C.

“CGACGTGCCTAATGTGCTG+CAGCACATTTCGCACGTCG ((((((((..(((((((((+)))))))))..))))))))”: the midpoint of thermal melting (Tm) stood at 50.5 °C.

For “CGACGTGCGACATGTGCTG+CAGCACATCAAGCACGTCG ((((((((...((((((((+))))))))...))))))))”, the Tm is 52.6 °C.

Take “CGACGTGCCAAATGTGCTG+CAGCACATGCAGCACGTCG ((((((((...((((((((+))))))))...))))))))”: the Tm worked out at 52.7 °C.

On to “CGACGTGCCAAATGTGCTG+CAGCACATCTAGCACGTCG ((((((((.(.((((((((+)))))))).).))))))))”, for which the Tm is 49.3 °C.

In the case of “CGACGTGCGCTATGTGCTG+CAGCACATTTTGCACGTCG ((((((((...((((((((+))))))))...))))))))”, the Tm stood at 48.3 °C.

In the case of “CGACGTGCAGGATGTGCTG+CAGCACATACAGCACGTCG ((((((((.(.((((((((+)))))))).).))))))))”, the Tm was determined as 55 °C.

As to “CGACGTGCATTATGTGCTG+CAGCACATAATGCACGTCG (((((((((((((((((((+)))))))))))))))))))”, the Tm amounted to 60.7 °C.

For the substance “CGACGTGCCCTATGTGCTG+CAGCACATCCAGCACGTCG ((((((((...((((((((+))))))))...))))))))”, the Tm was found to be 47.7 °C.

Regarding “CGACGTGCGGCATGTGCTG+CAGCACATCAGGCACGTCG ((((((((...((((((((+))))))))...))))))))”, the melting temperature (Tm) came out at 51 °C.

Take “CGACGTGCGGAATGTGCTG+CAGCACATGGGGCACGTCG ((((((((...((((((((+))))))))...))))))))”: the Tm was determined as 52.9 °C.

With “CGACGTGCCAAATGTGCTG+CAGCACATTTAGCACGTCG ((((((((.((((((((((+)))))))))).))))))))”, the Tm was found to be 54.4 °C.

For the substance “CGACGTGCAGGATGTGCTG+CAGCACATAGAGCACGTCG ((((((((...((((((((+))))))))...))))))))”, the Tm was 49.4 °C.

As to “CGACGTGCGTCATGTGCTG+CAGCACATGATGCACGTCG ((((((((.((((((((((+)))))))))).))))))))”, the Tm turned out to be 61.1 °C.

In the case of “CGACGTGCTTCATGTGCTG+CAGCACATATTGCACGTCG ((((((((...((((((((+))))))))...))))))))”, the Tm stood at 49.1 °C.

Turning to “CGACGTGCAGGATGTGCTG+CAGCACATTAGGCACGTCG ((((((((...((((((((+))))))))...))))))))”, the Tm worked out at 51.3 °C.

For the substance “CGACGTGCAAAATGTGCTG+CAGCACATACGGCACGTCG ((((((((...((((((((+))))))))...))))))))”, the Tm turned out to be 48 °C.

For “CGACGTGCATAATGTGCTG+CAGCACATAGAGCACGTCG ((((((((...((((((((+))))))))...))))))))”, the melting temperature (Tm) worked out at 48.7 °C.

Consider “CGACGTGCATTATGTGCTG+CAGCACATCCCGCACGTCG ((((((((...((((((((+))))))))...))))))))”, for which the Tm came to 46.1 °C.

For the substance “CGACGTGCCGGATGTGCTG+CAGCACATTATGCACGTCG ((((((((...((((((((+))))))))...))))))))”, the Tm amounted to 49.7 °C.

For “CGACGTGCAGTATGTGCTG+CAGCACATGAGGCACGTCG ((((((((...((((((((+))))))))...))))))))”, the Tm came out at 51.4 °C.

With “CGACGTGCTGGATGTGCTG+CAGCACATTTAGCACGTCG (((((((((..((((((((+))))))))..)))))))))”, the Tm is 54 °C.

Consider “CGACGTGCGGAATGTGCTG+CAGCACATTGTGCACGTCG ((((((((..(((((((((+)))))))))..))))))))”, for which the Tm worked out at 53.9 °C.

Regarding “CGACGTGCGTCATGTGCTG+CAGCACATTGTGCACGTCG ((((((((...((((((((+))))))))...))))))))”, the Tm is 46.3 °C.

Regarding “CGACGTGCTACATGTGCTG+CAGCACATGCAGCACGTCG (((((((((.(((((((((+))))))))).)))))))))”, the Tm came to 58.1 °C.

As to “CGACGTGCACTATGTGCTG+CAGCACATAGCGCACGTCG ((((((((.((((((((((+)))))))))).))))))))”, the Tm stood at 54.8 °C.

Regarding “CGACGTGCATCATGTGCTG+CAGCACATAGCGCACGTCG ((((((((...((((((((+))))))))...))))))))”, the Tm stood at 48.2 °C.

One may read the Tm as the temperature at which the thermal transition is half complete.
